Experimental findings from FireProtDB (doi:10.1073/pnas.84.13.4441) are described below.

Sequences and labels used below:
B1: Tryptophan synthase alpha chain, P0A877 (parent)
chain: MERYESLFAQLKERKEGAFVPFVTLGDPGIEQSLKIIDTLIEAGADALELGIPFSDPLADGPTIQNATLRAFAAGVTPAQCFEMLALIRQKHPTIPIGLLMYANLVFNKGIDEFYAQCEKVGVDSVLVADVPVEESAPFRQAALRHNVAPIFICPPNADDDLLRQIASYGRGYTYLLSRAGVTGAENRAALPLNHLVAKLKEYNAAPPLQGFGISAPDQVKAAIDAGAAGAISGSAIVKIIEQHINEPEKMLAALKVFVQPMKAATRS

In the data set the parent is B1. The note with it: Escherichia coli (strain K12), 25 °C, GdnHCl, CD, Potassium phosphate 20 mM, reversible: yes, structure 1WQ5, whole UniProt chain shown.

For the variant E49P, under “pH 7”, the “ddG of mutation (higher = less stable)” value worked out at 0 kcal/mol and the unfolding free energy was 18.2 kcal/mol. Besides, under “pH 9”, the “ddG of mutation (higher = less stable)” value was -0.8 kcal/mol and the unfolding free energy turned out to be 18.8 kcal/mol.
In the case of E49F, for the setting “pH 7”, the “ddG of mutation (higher = less stable)” value is 0.86 kcal/mol and the unfolding free energy amounted to 17.3 kcal/mol.
Regarding E49S, the “ddG of mutation (higher = less stable)” value reads like this: (pH 7) 0.59 kcal/mol; (pH 9) -0.09 kcal/mol. For the same variant, the unfolding free energy is 17.6 kcal/mol (pH 7) and 18.1 kcal/mol (pH 9).
E49Q: under “pH 7”, the “ddG of mutation (higher = less stable)” value was 0.23 kcal/mol and the unfolding free energy was 17.9 kcal/mol.
As to E49Y, for the setting “pH 7”, the “ddG of mutation (higher = less stable)” value was 0.17 kcal/mol and the unfolding free energy was 18 kcal/mol. In addition, for the setting “pH 9”, the “ddG of mutation (higher = less stable)” value was -0.26 kcal/mol and the unfolding free energy stood at 18.2 kcal/mol.
Turning to E49T, where the note is “pH 7”, the “ddG of mutation (higher = less stable)” value amounted to 0.62 kcal/mol and the unfolding free energy stood at 17.5 kcal/mol. Under “pH 9”, the “ddG of mutation (higher = less stable)” value amounted to 0.26 kcal/mol and the unfolding free energy worked out at 17.7 kcal/mol.
E49L: for the setting “pH 7”, the “ddG of mutation (higher = less stable)” value was -0.44 kcal/mol and the unfolding free energy is 18.6 kcal/mol. Besides, under “pH 9”, the “ddG of mutation (higher = less stable)” value was -1.04 kcal/mol and the unfolding free energy amounted to 19 kcal/mol.
On to E49H, for which, under “pH 7”, the “ddG of mutation (higher = less stable)” value is -0.33 kcal/mol and the unfolding free energy worked out at 18.5 kcal/mol. Moreover, for the setting “pH 9”, the “ddG of mutation (higher = less stable)” value was -0.67 kcal/mol and the unfolding free energy stood at 18.6 kcal/mol.
Take E49G: for the setting “pH 7”, the “ddG of mutation (higher = less stable)” value is -0.08 kcal/mol and the unfolding free energy is 18.2 kcal/mol. In addition, where the note is “pH 9”, the “ddG of mutation (higher = less stable)” value is -0.6 kcal/mol and the unfolding free energy came to 18.6 kcal/mol.
The corresponding values for E49A are 0.08 kcal/mol, 18.1 kcal/mol, -0.59 kcal/mol and 18.6 kcal/mol.
As for E49N, under “pH 9”, the “ddG of mutation (higher = less stable)” value is -0.27 kcal/mol and the unfolding free energy was determined as 18.2 kcal/mol.
Consider E49W, for which, where the note is “pH 7”, the “ddG of mutation (higher = less stable)” value is 0.97 kcal/mol and the unfolding free energy is 17.2 kcal/mol. For the same variant, where the note is “pH 9”, the “ddG of mutation (higher = less stable)” value was determined as 1.1 kcal/mol and the unfolding free energy worked out at 16.9 kcal/mol.
The corresponding values for E49D are 0.8 kcal/mol, 17.4 kcal/mol, 0.03 kcal/mol and 17.9 kcal/mol.
Consider E49V, for which, under “pH 7”, the “ddG of mutation (higher = less stable)” value was -0.14 kcal/mol and the unfolding free energy turned out to be 18.3 kcal/mol.
E49K: the “ddG of mutation (higher = less stable)” value is -0.2 kcal/mol (pH 7) and -0.39 kcal/mol (pH 9). In addition, the unfolding free energy is, setting by setting: (pH 7) 18 kcal/mol; (pH 9) 18.4 kcal/mol.
As to E49I, the “ddG of mutation (higher = less stable)” value was -0.46 kcal/mol (pH 7) and -1.24 kcal/mol (pH 9). Further, the unfolding free energy turned out to be 18.6 kcal/mol (pH 7) and 19.2 kcal/mol (pH 9).
Consider E49M, for which, where the note is “pH 7”, the “ddG of mutation (higher = less stable)” value was determined as 0.05 kcal/mol and the unfolding free energy turned out to be 18.1 kcal/mol. For the same variant, for the setting “pH 9”, the “ddG of mutation (higher = less stable)” value is -0.52 kcal/mol and the unfolding free energy is 18.5 kcal/mol.
On to E49C, for which the “ddG of mutation (higher = less stable)” value (pH 7) was -0.01 kcal/mol and the “ddG of mutation (higher = less stable)” value (pH 9) worked out at 0.13 kcal/mol. The unfolding free energy (pH 7) was found to be 18.2 kcal/mol and the unfolding free energy (pH 9) worked out at 17.8 kcal/mol.
